According to patent publication US20090149389A1 (PURDUE RESEARCH FOUNDATION, published 2009):

Legend:
Assay in all cases: cell-based or functional assay
[1] = molecular target: AMPK (r) (rat (r), UniProt Q09137 1-552, limits assumed)
[2] = molecular target: T1, Aurora-A (h) (human (h), UniProt O14965 1-403)
T1 sequence (looked up): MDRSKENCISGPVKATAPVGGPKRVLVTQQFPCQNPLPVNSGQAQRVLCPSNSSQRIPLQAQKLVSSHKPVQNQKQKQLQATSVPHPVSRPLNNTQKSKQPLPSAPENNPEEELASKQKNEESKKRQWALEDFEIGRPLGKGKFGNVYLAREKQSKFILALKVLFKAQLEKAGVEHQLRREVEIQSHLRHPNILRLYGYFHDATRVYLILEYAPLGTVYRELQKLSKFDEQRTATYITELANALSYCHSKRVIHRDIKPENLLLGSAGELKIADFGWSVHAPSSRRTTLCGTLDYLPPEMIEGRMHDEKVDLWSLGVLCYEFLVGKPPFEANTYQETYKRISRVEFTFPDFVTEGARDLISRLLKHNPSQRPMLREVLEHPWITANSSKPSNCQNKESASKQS

[3] = molecular target: CaMKI (h) (human (h), UniProt Q14012 1-370, limits assumed)
Chain of CaMKI (h) (Q14012 whole entry): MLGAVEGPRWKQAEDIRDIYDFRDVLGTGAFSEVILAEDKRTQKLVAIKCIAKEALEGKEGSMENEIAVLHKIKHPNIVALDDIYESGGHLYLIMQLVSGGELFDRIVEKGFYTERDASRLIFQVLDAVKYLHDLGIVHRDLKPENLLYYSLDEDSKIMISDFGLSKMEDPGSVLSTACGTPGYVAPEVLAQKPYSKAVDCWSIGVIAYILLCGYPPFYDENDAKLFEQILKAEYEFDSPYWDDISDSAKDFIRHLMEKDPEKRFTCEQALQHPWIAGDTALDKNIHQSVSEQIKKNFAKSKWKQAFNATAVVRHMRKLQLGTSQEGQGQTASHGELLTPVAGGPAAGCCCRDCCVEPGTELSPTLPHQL

[4] = molecular target: CDKI/cyclinB (h) (human (h), UniProt P06493 1-297)
Chain of CDKI/cyclinB (h) (P06493 whole entry): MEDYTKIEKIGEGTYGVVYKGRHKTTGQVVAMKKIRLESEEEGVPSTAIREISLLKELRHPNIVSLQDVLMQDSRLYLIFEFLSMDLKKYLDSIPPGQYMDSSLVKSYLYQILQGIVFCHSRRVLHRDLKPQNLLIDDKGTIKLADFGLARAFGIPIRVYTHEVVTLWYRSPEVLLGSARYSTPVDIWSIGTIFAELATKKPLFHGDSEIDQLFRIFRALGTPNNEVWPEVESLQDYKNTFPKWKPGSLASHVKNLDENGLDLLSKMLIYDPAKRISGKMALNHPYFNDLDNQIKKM

[5] = molecular target: cKit (h) (human (h), UniProt P10721 544-976, limits assumed)
Chain of cKit (h) (P10721 544-976 limits assumed): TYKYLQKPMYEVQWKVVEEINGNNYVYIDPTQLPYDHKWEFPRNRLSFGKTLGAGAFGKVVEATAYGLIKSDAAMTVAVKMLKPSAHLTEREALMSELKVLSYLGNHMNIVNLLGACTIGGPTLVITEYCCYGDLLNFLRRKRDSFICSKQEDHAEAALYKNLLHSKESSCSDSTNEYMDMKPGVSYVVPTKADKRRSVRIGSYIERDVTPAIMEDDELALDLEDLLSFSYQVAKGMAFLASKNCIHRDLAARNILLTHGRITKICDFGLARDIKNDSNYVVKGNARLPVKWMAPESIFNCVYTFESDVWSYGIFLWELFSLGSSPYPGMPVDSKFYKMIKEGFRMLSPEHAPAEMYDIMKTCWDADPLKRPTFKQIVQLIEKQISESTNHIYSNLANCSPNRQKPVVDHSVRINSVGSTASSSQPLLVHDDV

[6] = molecular target: T2, EphA2 (h) (human (h), UniProt P29317 591-976, limits assumed)
T2 sequence (looked up): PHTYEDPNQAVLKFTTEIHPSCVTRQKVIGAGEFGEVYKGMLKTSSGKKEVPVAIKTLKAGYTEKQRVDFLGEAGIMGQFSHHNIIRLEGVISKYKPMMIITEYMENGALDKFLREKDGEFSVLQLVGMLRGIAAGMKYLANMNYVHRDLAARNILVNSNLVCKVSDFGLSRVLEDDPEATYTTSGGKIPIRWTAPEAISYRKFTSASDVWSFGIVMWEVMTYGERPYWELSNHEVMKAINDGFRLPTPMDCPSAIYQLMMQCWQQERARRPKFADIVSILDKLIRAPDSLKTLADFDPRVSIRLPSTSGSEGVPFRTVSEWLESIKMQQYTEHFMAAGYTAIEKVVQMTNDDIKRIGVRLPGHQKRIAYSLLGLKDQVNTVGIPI

[7] = molecular target: Lck (h) (human (h), UniProt P06239 1-509)
[8] = molecular target: L1MK1 (h) (human (h), UniProt P53667 285-638, limits assumed)
[9] = molecular target: MAPKAP-K2 (h) (human (h), UniProt P49137 46-400, limits assumed)
[10] = molecular target: MEKI (h) (human (h), UniProt Q02750 1-393)
[11] = molecular target: Met (h) (human (h), UniProt P08581 974-1390, limits assumed)
Chain of Met (h) (P08581 974-1390 limits assumed): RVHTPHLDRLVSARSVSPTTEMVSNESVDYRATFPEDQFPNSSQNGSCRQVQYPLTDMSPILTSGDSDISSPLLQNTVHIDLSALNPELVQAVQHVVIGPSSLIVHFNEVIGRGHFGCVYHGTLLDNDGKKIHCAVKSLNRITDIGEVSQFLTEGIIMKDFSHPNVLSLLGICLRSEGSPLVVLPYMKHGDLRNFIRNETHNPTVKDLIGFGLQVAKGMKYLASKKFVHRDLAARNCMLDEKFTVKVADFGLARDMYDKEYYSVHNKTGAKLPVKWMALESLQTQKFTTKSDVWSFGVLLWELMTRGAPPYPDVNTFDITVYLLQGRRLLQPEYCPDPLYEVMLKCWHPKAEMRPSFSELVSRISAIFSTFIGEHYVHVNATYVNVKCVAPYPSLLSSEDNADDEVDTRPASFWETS

[12] = molecular target: T3, MKK4 (m) (mouse (m), UniProt P47809 35-397, limits assumed)
T3 sequence (looked up): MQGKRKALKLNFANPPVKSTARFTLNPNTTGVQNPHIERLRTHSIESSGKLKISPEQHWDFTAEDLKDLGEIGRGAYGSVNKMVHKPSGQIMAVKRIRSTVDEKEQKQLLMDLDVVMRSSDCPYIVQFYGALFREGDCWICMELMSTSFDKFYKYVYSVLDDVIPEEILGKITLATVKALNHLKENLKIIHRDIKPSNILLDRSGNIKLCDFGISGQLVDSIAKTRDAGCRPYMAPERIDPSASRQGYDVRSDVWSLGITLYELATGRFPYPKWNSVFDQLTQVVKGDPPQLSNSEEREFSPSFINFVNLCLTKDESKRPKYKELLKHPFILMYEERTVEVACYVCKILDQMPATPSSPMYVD

[13] = molecular target: MLCK (h) (human (h))
[14] = molecular target: MSK2 (h) (human (h), UniProt O75676 1-772, limits assumed)
Chain of MSK2 (h) (O75676 whole entry): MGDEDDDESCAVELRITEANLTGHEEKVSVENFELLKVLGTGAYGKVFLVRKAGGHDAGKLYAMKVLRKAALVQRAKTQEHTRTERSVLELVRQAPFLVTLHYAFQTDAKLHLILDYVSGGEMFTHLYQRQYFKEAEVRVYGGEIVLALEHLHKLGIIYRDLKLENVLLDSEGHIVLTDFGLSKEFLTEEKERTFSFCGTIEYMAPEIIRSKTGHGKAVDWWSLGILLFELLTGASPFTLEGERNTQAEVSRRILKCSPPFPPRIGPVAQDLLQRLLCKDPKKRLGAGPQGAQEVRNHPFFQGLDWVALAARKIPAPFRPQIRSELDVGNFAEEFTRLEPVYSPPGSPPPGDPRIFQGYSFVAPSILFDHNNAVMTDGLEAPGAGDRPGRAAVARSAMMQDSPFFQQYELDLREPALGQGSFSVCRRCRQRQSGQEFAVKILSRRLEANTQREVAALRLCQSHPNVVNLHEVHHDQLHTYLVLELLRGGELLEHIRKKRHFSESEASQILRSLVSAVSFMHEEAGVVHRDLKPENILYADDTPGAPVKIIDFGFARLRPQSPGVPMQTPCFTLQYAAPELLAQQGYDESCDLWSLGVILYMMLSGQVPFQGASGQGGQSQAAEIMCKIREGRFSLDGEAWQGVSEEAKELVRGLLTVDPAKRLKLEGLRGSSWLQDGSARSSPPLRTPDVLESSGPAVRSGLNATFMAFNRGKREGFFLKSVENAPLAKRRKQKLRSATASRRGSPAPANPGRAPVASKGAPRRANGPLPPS

[15] = molecular target: PDGFRβ (h) (human (h), UniProt P09619 558-1106, limits assumed)
Chain of PDGFRβ (h) (P09619 558-1106 limits assumed): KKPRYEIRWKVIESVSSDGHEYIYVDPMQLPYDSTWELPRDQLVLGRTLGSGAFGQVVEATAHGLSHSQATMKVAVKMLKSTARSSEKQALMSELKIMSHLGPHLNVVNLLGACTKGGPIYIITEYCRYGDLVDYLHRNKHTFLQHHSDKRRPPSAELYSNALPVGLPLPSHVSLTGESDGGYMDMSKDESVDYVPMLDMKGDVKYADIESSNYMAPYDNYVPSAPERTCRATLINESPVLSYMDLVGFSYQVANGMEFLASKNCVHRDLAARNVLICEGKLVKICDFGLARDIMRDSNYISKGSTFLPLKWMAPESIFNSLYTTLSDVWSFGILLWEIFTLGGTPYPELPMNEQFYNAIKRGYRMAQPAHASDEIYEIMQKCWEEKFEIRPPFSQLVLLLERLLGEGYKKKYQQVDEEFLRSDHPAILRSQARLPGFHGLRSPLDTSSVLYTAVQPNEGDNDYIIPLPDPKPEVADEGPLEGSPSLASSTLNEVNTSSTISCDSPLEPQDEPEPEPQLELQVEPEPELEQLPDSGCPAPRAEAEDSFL

[16] = molecular target: PKA (h) (human (h), UniProt P17612 1-351)
[17] = molecular target: T4, PRAK (UniProt Q8IW41 1-473, limits assumed)
T4 sequence (looked up): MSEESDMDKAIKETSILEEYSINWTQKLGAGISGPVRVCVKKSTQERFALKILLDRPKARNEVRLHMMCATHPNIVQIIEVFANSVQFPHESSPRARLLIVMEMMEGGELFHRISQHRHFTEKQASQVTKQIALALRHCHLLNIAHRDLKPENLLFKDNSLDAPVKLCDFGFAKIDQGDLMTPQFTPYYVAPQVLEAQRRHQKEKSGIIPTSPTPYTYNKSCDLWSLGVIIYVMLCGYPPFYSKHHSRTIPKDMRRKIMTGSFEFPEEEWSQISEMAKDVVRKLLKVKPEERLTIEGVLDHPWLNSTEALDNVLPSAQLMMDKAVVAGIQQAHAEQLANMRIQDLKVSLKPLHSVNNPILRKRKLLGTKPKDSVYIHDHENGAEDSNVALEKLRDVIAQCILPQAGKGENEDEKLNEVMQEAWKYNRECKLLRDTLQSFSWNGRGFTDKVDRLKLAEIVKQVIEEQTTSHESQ

[18] = molecular target: ROCK-1 (h) (human (h), UniProt Q13464 17-535, limits assumed)
Chain of ROCK-1 (h) (Q13464 17-535 limits assumed): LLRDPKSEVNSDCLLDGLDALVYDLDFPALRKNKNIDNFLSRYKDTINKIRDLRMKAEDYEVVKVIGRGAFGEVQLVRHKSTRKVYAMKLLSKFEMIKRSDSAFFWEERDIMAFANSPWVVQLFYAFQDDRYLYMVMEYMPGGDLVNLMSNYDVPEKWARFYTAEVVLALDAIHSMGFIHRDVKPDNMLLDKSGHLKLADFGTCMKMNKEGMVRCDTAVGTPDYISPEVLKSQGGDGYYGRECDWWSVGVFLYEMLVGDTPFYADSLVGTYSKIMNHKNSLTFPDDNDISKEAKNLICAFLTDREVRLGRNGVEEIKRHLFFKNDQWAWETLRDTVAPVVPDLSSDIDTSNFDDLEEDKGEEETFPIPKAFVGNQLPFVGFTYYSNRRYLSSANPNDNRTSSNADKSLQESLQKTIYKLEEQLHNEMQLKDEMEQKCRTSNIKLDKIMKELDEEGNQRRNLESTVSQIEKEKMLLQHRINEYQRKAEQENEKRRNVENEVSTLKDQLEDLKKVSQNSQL

[19] = molecular target: Rsk2 (h) (human (h), UniProt P51812 1-740)
Chain of Rsk2 (h) (P51812 whole entry): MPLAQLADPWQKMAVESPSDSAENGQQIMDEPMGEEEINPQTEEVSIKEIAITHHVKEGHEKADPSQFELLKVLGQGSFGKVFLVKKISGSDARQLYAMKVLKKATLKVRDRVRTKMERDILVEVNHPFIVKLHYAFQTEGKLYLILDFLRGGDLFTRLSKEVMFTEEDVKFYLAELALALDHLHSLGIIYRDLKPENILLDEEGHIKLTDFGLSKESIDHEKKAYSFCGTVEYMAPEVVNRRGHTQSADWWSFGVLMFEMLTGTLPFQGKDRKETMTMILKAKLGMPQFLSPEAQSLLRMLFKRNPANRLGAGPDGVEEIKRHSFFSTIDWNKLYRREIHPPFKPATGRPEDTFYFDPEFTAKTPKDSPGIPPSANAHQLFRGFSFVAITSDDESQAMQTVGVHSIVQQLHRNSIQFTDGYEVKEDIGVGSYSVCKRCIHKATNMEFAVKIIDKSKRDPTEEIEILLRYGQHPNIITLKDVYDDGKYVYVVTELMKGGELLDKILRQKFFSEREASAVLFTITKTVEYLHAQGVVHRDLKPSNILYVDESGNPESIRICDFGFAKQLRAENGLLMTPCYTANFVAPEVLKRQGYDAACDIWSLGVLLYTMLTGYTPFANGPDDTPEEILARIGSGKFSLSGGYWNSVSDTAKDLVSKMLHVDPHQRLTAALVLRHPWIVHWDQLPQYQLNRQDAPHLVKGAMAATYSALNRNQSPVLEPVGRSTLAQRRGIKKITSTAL

[20] = molecular target: Tie2 (h) (human (h), UniProt Q02763 771-1124, limits assumed)
Chain of Tie2 (h) (Q02763 771-1124 limits assumed): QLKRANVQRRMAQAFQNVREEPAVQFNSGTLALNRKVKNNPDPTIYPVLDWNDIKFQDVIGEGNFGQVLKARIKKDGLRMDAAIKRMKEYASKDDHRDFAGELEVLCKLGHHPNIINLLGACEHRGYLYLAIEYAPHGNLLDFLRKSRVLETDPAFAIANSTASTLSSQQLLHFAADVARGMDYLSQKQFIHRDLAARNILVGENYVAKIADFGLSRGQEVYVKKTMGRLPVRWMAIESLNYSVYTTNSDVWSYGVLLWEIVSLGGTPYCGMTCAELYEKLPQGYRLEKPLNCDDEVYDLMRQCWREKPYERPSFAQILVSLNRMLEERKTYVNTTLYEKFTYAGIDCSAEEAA

[21] = molecular target: TrkA (h) (human (h), UniProt P04629 441-796, limits assumed)
Chain of TrkA (h) (P04629 441-796 limits assumed): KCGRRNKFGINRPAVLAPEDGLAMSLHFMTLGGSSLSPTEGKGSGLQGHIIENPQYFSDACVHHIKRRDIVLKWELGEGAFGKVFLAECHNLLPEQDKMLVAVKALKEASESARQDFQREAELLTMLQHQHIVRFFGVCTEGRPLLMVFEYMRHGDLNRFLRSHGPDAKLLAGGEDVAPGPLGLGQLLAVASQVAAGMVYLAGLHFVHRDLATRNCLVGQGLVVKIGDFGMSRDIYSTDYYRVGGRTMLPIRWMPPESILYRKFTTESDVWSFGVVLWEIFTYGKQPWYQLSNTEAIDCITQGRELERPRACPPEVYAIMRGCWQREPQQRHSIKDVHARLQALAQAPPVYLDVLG

Binder: KAFAKLAARLYRKALARQLGVAA
- Profile-1 @ = 100 µm (kinase profiler assay) [1]: 118
- Profile-1 @ = 100 µm (kinase profiler assay) [2]: 60
- Profile-1 @ = 100 µm (kinase profiler assay) [3]: 0
- Profile-1 @ = 100 µm (kinase profiler assay) [4]: 55
- Profile-1 @ = 100 µm (kinase profiler assay) [5]: 31
- Profile-1 @ = 100 µm (kinase profiler assay) [6]: 22
- Profile-1 @ = 100 µm (kinase profiler assay) [7]: 847
- Profile-1 @ = 100 µm (kinase profiler assay) [8]: 93
- Profile-1 @ = 100 µm (kinase profiler assay) [9]: 8
- Profile-1 @ = 100 µm (kinase profiler assay) [10]: 66
- Profile-1 @ = 100 µm (kinase profiler assay) [11]: 22
- Profile-1 @ = 100 µm (kinase profiler assay) [12]: 114
- Profile-1 @ = 100 µm (kinase profiler assay) [13]: 2
- Profile-1 @ = 100 µm (kinase profiler assay) [14]: 30
- Profile-1 @ = 100 µm (kinase profiler assay) [15]: 66
- Profile-1 @ = 100 µm (kinase profiler assay) [16]: 103
- Profile-1 @ = 100 µm (kinase profiler assay) [17]: 148
- Profile-1 @ = 100 µm (kinase profiler assay) [18]: 29
- Profile-1 @ = 100 µm (kinase profiler assay) [19]: 6
- Profile-1 @ = 100 µm (kinase profiler assay) [20]: 8
- Profile-1 @ = 100 µm (kinase profiler assay) [21]: 16
